Assay [1] has as its target canine CD3 on canine T cells (canine PBMC) (canine, UniProt P27597 22-202). The assay can be described thus: cell-based or functional assay.
Assay [2] has as its target T1, canine CD20 on cells (HEK293, MDCK II, CLBL-1 or native B cells) (canine, UniProt Q3C2E2 1-297).
T1 construct: also called dCD20; cCD20
T1 chain: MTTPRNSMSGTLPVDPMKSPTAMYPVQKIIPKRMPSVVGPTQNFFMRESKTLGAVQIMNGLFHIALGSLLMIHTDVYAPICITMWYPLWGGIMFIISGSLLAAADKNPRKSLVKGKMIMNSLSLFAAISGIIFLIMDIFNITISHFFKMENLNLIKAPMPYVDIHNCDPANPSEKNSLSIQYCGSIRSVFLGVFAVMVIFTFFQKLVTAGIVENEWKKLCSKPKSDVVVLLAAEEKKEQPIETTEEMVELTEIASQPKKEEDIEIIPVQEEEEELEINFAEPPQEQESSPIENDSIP
The assay can be described thus: flow cytometry, canine CD20 HEK293 cells, 10 µg/ml, FITC anti-canine IgG. On the procedure:
A CD20 binding screen was performed on candidate proteins produced from the canine CD20 immunisation as described in Examples 2 and 3. CHO cells supernatants containing candidate antibodies were diluted to 10 μg/ml in FACS buffer (PBS containing 3% FBS) and screened for their ability to bind canine CD20 expressed on cell surface. In brief, 1-2×10⁵ canine CD20-expressing HEK cells were incubated with candidate mAbs for one hour at 4° C., at a fixed concentration of 10 μg/ml followed by incubation with 5 μg/ml of FITC-conjugated anti-canine IgG secondary antibody (Bethyl Laboratories) for 1 hour at 4° C. Cells incubated with anti-canine IgG FITC secondary antibody and without primary anti-canine CD20 antibody, or with isotype control primary antibody, were used as negative controls. The data were acquired on either a Beckman Coulter CytoFLEX or a BD Accuri C6 Plus flow cytometer and analysed using FlowJo software.

Chain of canine CD3 on canine T cells (canine PBMC) (P27597 22-202 limits assumed, chain 1 of 3): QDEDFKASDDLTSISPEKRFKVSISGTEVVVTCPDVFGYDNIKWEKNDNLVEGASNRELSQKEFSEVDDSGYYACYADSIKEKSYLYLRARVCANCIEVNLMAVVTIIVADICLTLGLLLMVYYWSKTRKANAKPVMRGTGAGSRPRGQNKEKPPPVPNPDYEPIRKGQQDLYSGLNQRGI
Chain of canine CD3 on canine T cells (canine PBMC) (chain, as listed by the source limits assumed, chain 2 of 3): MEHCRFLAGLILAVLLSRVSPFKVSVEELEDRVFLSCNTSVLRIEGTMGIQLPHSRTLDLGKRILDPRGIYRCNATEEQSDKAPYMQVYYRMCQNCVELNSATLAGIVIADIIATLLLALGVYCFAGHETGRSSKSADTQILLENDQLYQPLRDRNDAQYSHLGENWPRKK
Chain of canine CD3 on canine T cells (canine PBMC) (chain, as listed by the source limits assumed, chain 3 of 3): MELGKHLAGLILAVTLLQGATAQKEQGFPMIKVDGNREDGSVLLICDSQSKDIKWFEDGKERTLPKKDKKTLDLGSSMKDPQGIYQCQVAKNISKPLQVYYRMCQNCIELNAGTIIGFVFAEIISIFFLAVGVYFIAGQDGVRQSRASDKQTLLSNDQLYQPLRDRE

B1: PMX191 (monospecific anti-canine CD3, canine IgG-B effector function deficient Fc) (antibody, V domains shown)
VH: EVQLVESGGDLVKPAGSLRLSCVASGFTFSDYSMSWVRQGPEKGLQLVAGMNSDGSTTYYTDAVRGRFTISRDNAKNTMYLQMNSLRDEDTAIYYCAKGAAAPDYWGQGTLVTVSS
VL: SYELTQPPSVNVTLRETAHITCGGDRIGSKYVQWIQQIPGQAPVVIIYKDNNRPTGIPERFSGANSGNTATLTISGALAEDEADYYCQVGDNYTWVFGEGTQLTVL
Consider B1, for which, in assay [1], the “CD25 Activation, Day 6, IS” value was determined as 8.97; the “CD25 Activation, Day 6, PB” value was found to be 10.5; the “CD25 Activation, Day 9, IS” value was found to be 14.2; the “CD25 Activation, Day 9, PB” value amounted to 14.9. Besides, in assay [1], the “IFNy Concentration pg/ml, Day 6, IS” value was determined as 31.9 pg/mL; the “IFNy Concentration pg/ml, Day 9, IS” value worked out at 370 pg/mL; the “IFNy Concentration pg/ml, Day 9, PB” value came to 744 pg/mL; the “Ki67 Proliferation, Day 6, IS” value is 0.66. Also, in assay [1], the “Ki67 Proliferation, Day 6, PB” value was determined as 0.35; the “Ki67 Proliferation, Day 9, IS” value came out at 2.89; the “Ki67 Proliferation, Day 9, PB” value was determined as 0.6.

B2: PMX192 (monospecific anti-canine CD3, canine IgG-B effector function deficient Fc) (antibody, V domains shown)
VH: EVQLVESGGDLVKPAGSLRLSCVASGFTFSDYSMSWVRQAPEKGLQLVAGINGDGSTTYYTDAVKGRFTISRDNAKNTVYLQMNSLRAEDTAMYYCAKGAGTGDFWGQGTLVTVSS
VL: SYELTQPPSVNVTLRETAHITCGGASIGRKYVQWIQQIPGQAPVVIIYKDSNRPTGIPERFSGANSGNTATLTISGALAEDEADYYCQVGDSGAWVFGEGTQLTVL
For the molecule B2, in assay [1], the “CD25 Activation, Day 6, IS” value worked out at 10.4; the “CD25 Activation, Day 6, PB” value was determined as 12.7; the “CD25 Activation, Day 9, IS” value worked out at 10.3; the “CD25 Activation, Day 9, PB” value was 11.3. In assay [1], the “IFNy Concentration pg/ml, Day 6, IS” value was found to be 75.9 pg/mL; the “IFNy Concentration pg/ml, Day 9, IS” value stood at 210 pg/mL; the “IFNy Concentration pg/ml, Day 9, PB” value is 758 pg/mL; the “Ki67 Proliferation, Day 6, IS” value was 1.29. Further, in assay [1], the “Ki67 Proliferation, Day 6, PB” value was 0.66; the “Ki67 Proliferation, Day 9, IS” value worked out at 3.65; the “Ki67 Proliferation, Day 9, PB” value stood at 1.56.

B3: PMX227 (monospecific anti-canine CD20, canine IgG-B, lambda C5) (antibody, V domains shown)
VH: EMQLVESGGALVKPGGSLRLSCVASGFTFRRYHMSWVRQAPGQGLQWVAYIDSDGSPTSYGDSVKGRFTISRDNAKNTLFLQMNSLRVDDTAVYYCTTLDYWGRGTLVTVSS
VL: SYVLTQVPSKNVTLKQPAHITCGGDNIGGKSVHWYQQKLGQAPLLIIYYDTRRPTGIPERFSGANSGNTATLTISRALAEDEADYYCQVWDSSGNVFGGGTHLTVIG
Regarding B3, in assay [2], the binding result is given as “binds”.

B4: PMX228 (monospecific anti-canine CD20, canine IgG-B, lambda C5) (antibody, V domains shown)
VH: EVQLVQSGGDLVKPGGSLRLSCVASGYTFTRYHMSWVRQAPGKGLQWVAFINSDGTGITYGDAVKGRFTISRDNAKNTLYLQMNSLRAEDTAIYYCTTFDSWGQGTLVTVSS
VL: SYVLTQLPSKNVTLKQPAHITCGGDNIGSKSVHWYQQKLGQAPILIIYYDSRRPTGIPERFSGANSGNTATLTISGALAEDEADYYCQVWDSSGNVFGGGTHLTVLG
Take B4: the binding result in assay [2] is on record as “binds”.

B5: PMX230 (monospecific anti-canine CD20, canine IgG-B, lambda C5) (antibody, V domains shown)
VH: EVHLVESGGDLVKPGGSLRLSCVASGITFNRYYMNWVRQTPGKGLQWVAYIDSGGSPTTYADAVKGRFTISRDNAKNTLYLQMNSLRAEDTAVYYCTSFDYWGQGTLVTVSS
VL: SYVLTQLPSKNVTLKQPAHITCGGDNIGSKSVHWYQQKLGQAPILIIYYDTSRPTGIPERFSGANSGNTATLTISGALAEDEADYYCQVWDSSANVFGGGTHLTVLG
For B5, in assay [2], the binding result was “binds”.

B6: PMX229 (monospecific anti-canine CD20, canine IgG-B, lambda C5) (antibody, V domains shown)
VH: EVQLVESGGDLVKPGGSLRLSCVASGITFSRYHMSWVRQAPGKGLQWVAFINTGRSSTNYADAVAGRFTISRDNAKNTLYLQMNGLTVEDTAVYYCSTLDYWGQGTLVTVSS
VL: SYVLTQLPSKSVTLKQPAHITCGGDNIGSKSVHWYQQKLGQAPILIIYYDNNRPTGIPERFSGANSGNTATLTISGALAEDEADYYCHVWDSSVNVFGGGTHLTVLG
Take B6: in assay [2], the binding result is listed as “binds”.

B7: PMX231 (monospecific anti-canine CD20, canine IgG-B, lambda C5) (antibody, V domains shown)
VH: EVQLVESGGDLVKPGGSLRLSCVASGLTFSRYHMSWIRQAPGKGLQWVAYISSGGSSTNYAGSVKGRFTVSRDNAKNTLYLQMNSLRAEDTAVYYCTSLDYWGQGTLVTVSS
VL: SYVLTQLPSKNVTLKQPAHITCGGDNIGSKSVHWYQQKLGQAPVLIIYYDSRRPTGIPERFSGANSGNTATLTISGALAEDEADYYCQVWDSSDNVFGGGTHLTVLG
Consider B7, for which the binding result in assay [2] is on record as “binds”.

B8: PMX242 (monospecific anti-canine CD20, canine IgG-B, lambda C5) (antibody, V domains shown)
VH: EIQLVESGGDLVKPGGSLRLSCVASGFTFSRYHMSWVRQAPGKGLQWVAYINTGGSNTNYADAVKGRFTISRDNAKNTLYLQMNSLRAEDTAVYYCTTLDSWGQGTLVTVSS
VL: SYVLTQLPFKNVTLKQPAHITCGGDNIGSKSVHWYQQKLGQAPVLIIYYDSRRPTGIPERFSGANSGNTATLTISGALAEDEADYYCQVWDSSVNVFGGGTHLTVLG
For B8, the binding result in assay [2] was “binds”.

B9: PMX238 (monospecific anti-canine CD20, canine IgG-B, lambda C5) (antibody, V domains shown)
VH: EVQLVESGGDLVKPGGSLRLSCVASGFTFSRYHMSWVRQAPGKGLQWVAFINTGRSSTNYADAVAGRFTISRDNAKNTLYLQMNSLRAEDTAVYYCSTLDYWGQGTLVTVSS
VL: SYVLTQLPSKNVTLKQPAHITCGGDNIGSKSVHWYQQKLGQAPVLIIYYDSSRPTGIPERFSGANSGNTATLTISGALAEDEADYYCQVWDSSANVFGGGTHLTVLG
In the case of B9, the binding result in assay [2] is “binds”.

B10: PMX245 (monospecific anti-canine CD20, canine IgG-B, lambda C5) (antibody, V domains shown)
VH: EVQLVESGGDLVKPGGSLRLSCVASGLTFSRYHMSWVRQAPGKGLQWVAYINSGGSSTDYADGVKGRFTISRDNAKNTLYLQMNSLRAEDTAVYYCTSLEDWGQGTLVTVSS
VL: SYVLTQLPSKNVTLKQPAHITCGGDNIGSKSVHWYQQKLGQAPVLIIYYDSSRPTGIPERFSGANSGNTATLTISGALAEDEADYYCQVWDSSVNVFGGGTHLTVLG
In the case of B10, in assay [2], the binding result is on record as “binds”.

B11: PMX240 (monospecific anti-canine CD20, canine IgG-B, lambda C5) (antibody, V domains shown)
VH: EVQLVESGGDLVKPGGSLRLSCVASGLTFSRYHMSWVRQAPGKGLQWVAFINSGRSDTTYADAVKGRFTISRDNAKNTLYLQMNSLRAEDTAVYYCTTFDYWGQGTLVTVSS
VL: SYVLTQLPSKNVTLKQPAHITCGGDNIGSKSVHWYQQKLGQAPALIIYYDSSRPTGIPERFSGANSGNTATLTISGALAEDEADYYCQVWDSSANVFGGGTHLTVLG
Consider B11, for which the binding result in assay [2] is “binds”.

B12: PMX237 (monospecific anti-canine CD20, canine IgG-B, lambda C5) (antibody, V domains shown)
VH: EVQLVESGGDLVKPGGSLRLSCVASGLTFSRYYMNWVRQAPGKGLQWVAYINSGGSSTDYADAVKGRFTISRDNAKNTLYLQMNSLRVEDTAVYYCASFDYWGQGTLVTVSS
VL: SYVLTQLPSKKVTLKQSAHITCGGDNIGSKSVHWYQQKLGQAPVLIIYHDSSRPTGIPERFSGANSGNTATLTISGALAEDEADYYCQVWDSSANVFGGGTHLTVLG
Turning to B12, the binding result in assay [2] is “binds”.

B13: PMX236 (antibody, V domains shown)
VH: EVQLVESGGDLVKPGGSLRLSCVASGLTFSRYYMNWVRQAPGKGLQWVAYIDSGGSPTNYADAVKGRFTISRDNAKNTLYLQMNSLRAEDTAVYYCSSFDYWGQGTLVTVSS
VL: SYVVTQLPSNTVTLKQPAHITCGGDNIGSKSVHWYQQKLGQAPVLIIYYDSRRPTGIPERFSGANSGNTATLTISGALAEDEADYYCQVWDSSANVFGGGTHLTVLG
notes: also called PMX236 (monospecific anti-canine CD20, canine IgG-B, lambda C5)
For B13, in assay [2], the binding result is “binds”.

B14: PMX239 (monospecific anti-canine CD20, canine IgG-B, lambda C5) (antibody, V domains shown)
VH: EVQLVESGGDLVKPGGSLRLSCVASGFTFSRYYMNWVRQAPGKGLQWVAFITSGGSSTSYGDAVKGRFTISRDNAKNTLYLQMNSLRAEDTAVYYCTSFDYWGQGTLVTVSS
VL: SYVLTQLPSKNVTLKQPAHITCGGDNIGSKSVHWYQQKLGQAPVLIIYYASSRPTGIPERFSGANSGNTATLTISGALAEDEADYYCQVWDSSANVFGGGTHLTVLG
For B14, in assay [2], the binding result was “binds”.

B15: PMX243 (monospecific anti-canine CD20, canine IgG-B, lambda C5) (antibody, V domains shown)
VH: EVQLVESGGDLVKPGGSLRLSCVASGFTFSRYHMSWVRQAPGKGLQWVAYINSGGSNTDYTDAVKGRFTISRDNAKNTLYLQMNSLRAEDTAVYYCSSLDYWGQGTLVTVSS
VL: SYVLTQLPSKNVTLKQPAHITCGGDNIGSKSVHWYQQKLGQAPVLIIYYDRRRPTGIPERFSGANSGNTATLTISGALAEDEADYYCQVWDRSGNVFGGGTHLTVLG
Regarding B15, the binding result in assay [2] is recorded as “binds”.

B16: PMX265 (monospecific anti-canine CD20, canine IgG-B, lambda C5) (antibody, V domains shown)
VH: EVQLVQSGGDLVKPGGSLRLSCVASGYTFSRYHMSWVRQAPGKGLQWVAFINSDGTGITYGDAVKGRFTISRDNAKNTLYLQMNSLRAEDTAIYYCTTFDSWGQGTLVTVSS
VL: SYVLTQLPSKNVTLKQPAHITCGGDNIGSKSVHWYQQKLGQAPILIIYYDSRRPTGIPERFSGANSGNTATLTISGALAEDEADYYCQVWDSSGNVFGGGTHLTVLG
In the case of B16, the binding result in assay [2] is recorded as “binds”.

B17: PMX234 (monospecific anti-canine CD20, canine IgG-B, lambda C5) (antibody, V domains shown)
VH: ELQLVESGGDLVKPGGSLRLSCVASGFTFSRYYLNWVRQAPGKGLQWVAFITSGGSSTNYADAVKGRFTISRDNAKNTLYLQMNSLRAEDTAVYYCTSFDSWGQGTLVTVSS
VL: SYVLTQLPSKNVTLKQPAHITCGGDNIGSKSVHWYQQKLGQAPVLIIYYDSSRPTGIPERFSGANSGNTATLTISGALAEDEADYYCQVWDSSANVFGGGTHLTVLG
In the case of B17, in assay [2], the binding result was “binds”.

(Values after US20240209086A1 (PETMEDIX, published 2024).)
